The record followed here is patent US20100168020A1 (Amgen, published 2010).

Where a chain is given by its changes, count along the chain named. In names and notes the source's numbering stands.

The target in assay [1] is GDF-11 (Homo sapiens (Human)) (UniProt O95390). Briefly: cell-based or functional assay.
Assay [2] has as its target T1, myostatin (human, UniProt O14793 267-375).
T1 sequence: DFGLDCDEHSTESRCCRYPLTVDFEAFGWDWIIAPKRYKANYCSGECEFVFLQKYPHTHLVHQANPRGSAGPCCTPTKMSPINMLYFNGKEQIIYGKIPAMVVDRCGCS
Briefly: cell-based or functional assay.

The target of assay [3] is T2, activin A (Homo sapiens (Human), UniProt P08476 311-426).
T2 sequence: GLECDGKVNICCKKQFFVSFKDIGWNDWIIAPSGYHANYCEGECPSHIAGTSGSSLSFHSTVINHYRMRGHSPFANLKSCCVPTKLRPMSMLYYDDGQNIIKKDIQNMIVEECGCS
Put plainly: cell-based or functional assay.

The target in assay [4] is GDF-11 (Homo sapiens (Human)) (UniProt O95390). Put plainly: KinExA solution equilibrium, ligand-coated beads, Cy5 anti-human Fc detection.
Assay [5] deals with T1, myostatin. Described as above. As for the experimental part: (§1) Solution-based equilibrium-binding assays using KinExA™ technology (Sapidyne Instruments, Inc.) were used to determine the dissociation equilibrium (KD) of ligand binding to ActRIIB-Fc polypeptides. UltraLink Biosupport beads (Pierce) was pre-coated with about 100 μg/ml each of myostatin, GDF-11, and activin A overnight, and then blocked with BSA. 1 pM and 3 pM of ActRIIB-Fc (E28W) (SEQ ID NO: 21) and svActRIIB-Fc (E28W, S44T) (SEQ ID NO: 10) samples were incubated with various concentrations (0.7 fM to 160 pM) of myostatin, activin A, and GDF-11 respectively in sample buffer at room temperature for 8 hours before being run through the ligand-coated beads. The amount of the bead-bound soluble receptor was quantified by fluorescent (Cy5) labeled goat anti-human-Fc antibody at 1 mg/ml in superblock. The binding signal is proportional to the concentration of free soluble receptor at equilibrium with a given myostatin, activin A, or GDF-11 concentration. KD was obtained from the nonlinear regression of the competition curves using a dual-curve one-site homogeneous binding model provided in the KinEx A™ software (Sapidyne Instruments, Inc.).

The target in assay [6] is T2, activin A. Described as above. As for the experimental part: as §1

B1: ActRIIB-Fc (E28W) (Fc fusion)
chain: ETRWCIYYNANWELERTNQSGLERCEGEQDKRLHCYASWRNSSGTIELVKKGCWLDDFNCYDRQECVATEENPQVYFCCCEGNFCNERFTHLPEAGGPEVTYEPPPTAPTGGGGSVECPPCPAPPVAGPSVFLFPPKPKDTLMISRTPEVTCVVVDVSHEDPEVQFNWYVDGVEVHNAKTKPREEQFNSTFRVVSVLTVVHQDWLNGKEYKCKVSNKGLPAPIEKTISKTKGQPREPQVYTLPPSREEMTKNQVSLTCLVKGFYPSDIAVEWESNGQPENNYKTTPPMLDSDGSFFLYSKLTVDKSRWQQGNVFSCSVMHEALHNHYTQKSLSLSPGK
notes: also called ActRIIB-IgG2Fc (E28W); ActRIIB-IgG Fc (E28W)
For the molecule B1, the IC50, luciferase activity of C2C12/pMARE-luc reporter cells at 4 nM ligand amounted to 2.4 nM in assay [1], 0.95 nM with myostatin [2] and 3.2 nM with activin A [3]. Moreover, the Kd in assay [4] stood at 0.1 pM; with myostatin [5], 0.1 pM; with activin A [6] it was 0.2 pM.

B2: svActRIIB-Fc (E28W, S44T) (Fc fusion)
chain: B1 chain with S20T
notes: Made in 293-6E or CHO cells; also called svActRIIB-IgG2Fc (E28W, S44T); svActRIIB-IgG Fc (E28W, S44T)
Take B2: the IC50, luciferase activity of C2C12/pMARE-luc reporter cells at 4 nM ligand is 2.4 nM in assay [1], 1.07 nM with myostatin [2] and 3.6 nM with activin A [3]. Further, the Kd (in assay [4]; with myostatin [5]; with activin A [6]) was 0.1 pM throughout.
